The record followed here is patent US9975933B2, “Tumor tissue-penetrating peptide specific to neuropilin and fusion protein having same peptide fused therein” (AJOU UNIVERSITY INDUSTRY-ACADEMIC COOPERATION FOUNDATION, priority 2013, dated 2018).

The test system of one data set is HUVEC. Kind of data set: Transwell assay of vascular endothelial cell permeability. The class given is cell-based, human. Particulars: single peptides and Fc-TPP 1 μM, 30 minutes. How it is done:
Based on the above experimental results, as experiments for confirming the improvement of vascular endothelial cell permeability, single peptides and Fc-TPP were treated to conduct Transwell assay.
Specifically, HUVECs were seeded into Transwell plate (Corning) at a density of 5×10^4 per well in a upper chamber using Endothelial Growth Medium, PromoCell (EGM) medium, followed by incubation at 37° C. for 3 days under 5% CO2 condition. […] Thereafter, Dextran-FITC (Sigma) 50 μg was put into the upper chamber and the medium of the lower chamber was sampled to measure its fluorescence after 30 minutes, using the principle that a fluorescent substance is observed in the lower chamber when the permeability in HUVECs was improved.

Another data set concerns VE-cadherin in HUVEC. Kind of data set: Western blot of VE-cadherin in HUVEC. Particulars: single peptides and Fc-TPP 1 μM, 10 minutes. The class given is cell-based, human. An excerpt: During this process, a decrease in vascular endothelial (VE)-cadherin, phosphorylation, etc. of endothelial cells occur. That is, VE-cadherin or epithelial (E)-cadherin involves in adhesion between endothelial cells, while forming the base of adherent junction between endothelial cells and epithelial cells. The change in molecules relieve the density of adherent junction, which results in increasing permeability of blood vessels and improving intracellular permeability.
As an experimental method for indirectly confirming improvement of vascular permeability based thereon, a change in VE-cadherin was confirmed through a Western blot. Specifically, HUVECs were seeded into 6-well plates at a density of 3×10^5 per well, followed by incubation for 24 hours. Thereafter, single peptides and Fc-TPP were treated with 1 μM for 10 minutes to perform a Western blot. Gel subjected to SDS-PAGE was transported into PVDF membrane, a primary antibody (SantaCruz) and an HRP-conjugated secondary antibody (SantaCruz) which recognize VE-cadherin and (3-actin, respectively were used for detection. ImageQuant LAS4000 mini (GE Healthcare) was used for analysis.
In general terms: A western blot detects proteins with antibodies after separation by electrophoresis.

The test system of another data set is A431 tumor. Description: IHC of Fc-TPP infiltration in A431 tumor tissue. The class given is in vivo, Balb/c nude mice. The conditions noted are these: A431 xenograft, 5 mg/kg intravenously, 3 hours. As to the method: 3 hours after injection, tumors were extracted from mice to conduct immunohistochemistry experiment. The extracted tumors were cut into 20 μm thick using a frozen section method, and stained with a primary antibody, CD31 antibody (BD Pharmingen), and a TRITC (red fluorescence)-conjugated secondary antibody. Further, in order to observe Fc-TPP distributed in the tissues, FITC (green fluorescence)-conjugated antibodies recognizing Fc were used.

In data set [1] the test system is b1b2 domains of neuropilin-1 and -2. Description: ELISA binding to b1b2 domains of neuropilin-1 and -2. The conditions noted are these: 100 nM (peptides 100 nM, 1 μM). As to the method: The binding capacity of purified Fc-TPP to b1b2 domains of neuropilin-1 and -2 (neuropilin (NRP)1/2-b1b1 domain) was confirmed in Enzyme Linked Immunosorbent Assay (ELISA).
The target molecules, b1b2 domains (273-586) of neuropilin-1 and b1b2 domains (275-595) of neuropilin-2, and the control group VEGFR2 (46-753) were bound in an amount of 1 μg each in 96-well EIA/RIA plates (COSTAR Corning In., USA) at room temperature for 1 hour, and then washed three times for 10 minutes with 0.1% PBST (0.1% Tween20, pH 7.4, 137 mM NaCl, 10 mM Phosphate, 2.7 mM KCl, SIGMA-ALDRICH co., USA). After binding for 1 hour with 5% skim milk (pH 7.4, 137 mM NaCl, 10 mM Phosphate, 2.7 mM KCl, SIGMA-ALDRICH co., USA), it was washed three times for 10 minutes with 0.1% PBST (0.1% Tween20, pH 7.4, 137 mM NaCl, 10 mM Phosphate, 2.7 mM KCl, SIGMA-ALDRICH co., USA). […] After binding to alkaline phosphatase (AP)-conjugated anti-biotin mAb (Sigma, USA) and reacting with pnitrophenyl […] (pNPP, SIGMA-ALDRICH co., USA), absorbance at 405 nm was quantified. From the ELISA result obtained from 30 minute-reaction of AP-pNPP, the binding capacity of expressed and purified Fc-TPP to b1b2 domains of neuropilin-1 and -2 was confirmed.
Background: ELISA stands for enzyme-linked immunosorbent assay.

Data set [2] addresses T1, NRP1-b1b2 (b1b2 domain of neuropilin-1) (Homo sapiens, UniProt O14786).
T1 construct: b1b2 domains (273-586) of neuropilin-1
Kind of data set: SPR (Biacore2000) binding to b1b2 domain of neuropilin-1. Particulars: NRP1-b1b2, SPR; for Kd: read-out: Binding affinity KD. How it is done: (§1) Specifically, each b1b2 domain of neuropilin-1 and -2 was diluted with 10 mM Na-acetate buffer (pH 4.0), and fixed onto CMS sensor chips (GE healthcare, USA) in about 1000 response units (RU). […] After bond and dissociation analysis, the regeneration of CMS chip was performed by streaming a buffer (20 Mm NaOH, 1 M NaCl, pH 10.0) at a stream velocity 30 μl/min for 1 minute.

Data set [3] deals with T2, NRP2-b1b2 (b1b2 domain of neuropilin-2) (Homo sapiens, UniProt O60462).
T2 construct: b1b2 domains (275-595) of neuropilin-2
T2 sequence (O60462 275-595): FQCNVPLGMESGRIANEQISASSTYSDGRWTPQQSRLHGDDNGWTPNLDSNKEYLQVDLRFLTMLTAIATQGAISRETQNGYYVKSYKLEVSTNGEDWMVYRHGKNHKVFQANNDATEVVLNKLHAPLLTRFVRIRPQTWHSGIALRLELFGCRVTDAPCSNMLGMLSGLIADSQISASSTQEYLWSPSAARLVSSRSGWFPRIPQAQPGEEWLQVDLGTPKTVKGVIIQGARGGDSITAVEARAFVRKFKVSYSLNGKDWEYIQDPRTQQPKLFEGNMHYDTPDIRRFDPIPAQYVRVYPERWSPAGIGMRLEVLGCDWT
Description: SPR (Biacore2000) binding to b1b2 domain of neuropilin-2. The conditions noted are these: for Kd: read-out: Binding affinity KD. How it is done: as §1
(In SPR one partner is held on a chip, and binding of the other changes the refractive index at the surface.)

For data set [4], the target named is b1b2 domains (275-595) of neuropilin-2 (Homo sapiens (Human)) (UniProt O60462). Description: SPR, b1b2 domain on chip.
Data set [5] addresses b1b2 domains (273-586) of neuropilin-1 (Homo sapiens (Human)) (UniProt O14786). Description: SPR, b1b2 domain on chip.

T1 sequence (O14786 273-586): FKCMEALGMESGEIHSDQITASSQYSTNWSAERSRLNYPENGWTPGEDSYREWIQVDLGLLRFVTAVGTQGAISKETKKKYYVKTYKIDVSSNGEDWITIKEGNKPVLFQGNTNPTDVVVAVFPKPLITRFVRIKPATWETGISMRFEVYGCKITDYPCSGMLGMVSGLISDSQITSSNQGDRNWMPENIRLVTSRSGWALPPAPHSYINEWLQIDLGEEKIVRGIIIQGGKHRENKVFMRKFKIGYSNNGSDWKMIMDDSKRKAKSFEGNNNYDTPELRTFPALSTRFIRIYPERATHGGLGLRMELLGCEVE

“A22: Sema3A-derived 22 amino acid TPP, residues 739-760, SEQ ID NO: 1, HTPGNSNKWKHLQENKKGRNRR (A22) [Clone A22]”: the “permeability of HUVEC (Transwell, Dextran-FITC)” value (shortened to “permeability of HUVEC”) in the data set on HUVEC is recorded as “improvement of vascular permeability was not induced”. Moreover, the “change in VE-cadherin (Western blot)” value in the data set with VE-cadherin in HUVEC was “no change in VE-cadherin”. In the data set with A431 tumor, the “infiltration into tumor tissue (IHC)” value is on record as “did not infiltrate into the tissues”.

Turning to “A22p: A22 with Asn758Pro, SEQ ID NO: 2, HTPGNSNKWKHLQENKKGRPRR (A22p) [Clone A22p]”, the “permeability of HUVEC” value in the data set on HUVEC was “improvement of vascular permeability was not induced”. The “change in VE-cadherin (Western blot)” value in the data set on VE-cadherin in HUVEC was “no change in VE-cadherin”. Further, the “binding to b1b2 domains of NRP-1 and -2 (ELISA, absorbance 405 nm)” value in data set [1] is given as “stronger bond”. Besides, in the data set on A431 tumor, the “infiltration into tumor tissue (IHC)” value was “did not infiltrate into the tissues”.

Take “F22: Sema3F-derived 22 amino acid TPP, residues 758-779, SEQ ID NO: 3, REAPGAPRSPEPQDQKKPRNRR (F22) [Clone F22]”: the “permeability of HUVEC” value in the data set with HUVEC was “permeability of HUVEC was not improved”.

On to “F22p: F22 with Asn777Pro, SEQ ID NO: 4, REAPGAPRSPEPQDQKKPRPRR (F22p) [Clone F22p]”, for which, in the data set on HUVEC, the “permeability of HUVEC” value was “permeability of HUVEC was not improved”. The “binding to b1b2 domains of NRP-1 and -2 (ELISA, absorbance 405 nm)” value in data set [1] is recorded as “stronger bond”.

In the case of “Fc-4A22: Human IgG1 Fc with TPP 4A22 (SEQ ID NO: 5) fused to its C-terminus (GAGAHTPGNSNKWKHLQENKKGRNRR)”, the “permeability of HUVEC” value with HUVEC is reported as “improvement of vascular permeability was not induced”. Moreover, in data set [2], the Association rate ka is recorded as 1.02 ± 0.14 × 10^3 M^−1s^−1, the Dissociation rate kd is 1.93 ± 0.05 × 10^−2 s^−1 and the dissociation constant (Kd) (commonly the constant that tells how readily two partners part at equilibrium) was determined as 18 µM. For the same substance, the “change in VE-cadherin (Western blot)” value with VE-cadherin in HUVEC is given as “VE-cadherin was not decreased”. In data set [3], the Association rate ka is listed as 6.09 ± 0.63 × 10^3 M^−1s^−1, the Dissociation rate kd was 1.23 ± 0.16 × 10^−1 s^−1 and the Kd came to 20.2 µM.

“Fc-4F22: Human IgG1 Fc with TPP 4F22 (SEQ ID NO: 8) fused to its C-terminus (GAGAREAPGAPRSPEPQDQKKPRNRR)”: the “permeability of HUVEC” value in the data set on HUVEC is recorded as “permeability of HUVEC was not improved”. In data set [2], the Association rate ka is given as 2.18 ± 0.12 × 10^2 M^−1s^−1, the Dissociation rate kd was 2.25 ± 0.18 × 10^−3 s^−1 and the Kd was 10.3 µM. In addition, in data set [3], the Association rate ka is 1.21 ± 0.15 × 10^2 M^−1s^−1, the Dissociation rate kd is on record as 1.57 ± 0.40 × 10^−3 s^−1 and the Kd stood at 13 µM.

On to “Fc-15F22: Human IgG1 Fc with (GGGGS)3-F22 (SEQ ID NO: 9) fused to its C-terminus (GGGGSGGGGSGGGGSREAPGAPRSPEPQDQKKPRNRR)”, for which the “permeability of HUVEC” value with HUVEC is “permeability of HUVEC was not improved”. Also, in data set [2], the Association rate ka is 1.35 ± 0.24 × 10^3 M^−1s^−1, the Dissociation rate kd is 5.34 ± 0.24 × 10^−2 s^−1 and the Kd is 39.7 µM. In addition, in data set [3], the Association rate ka is on record as 1.05 ± 0.03 × 10^3 M^−1s^−1, the Dissociation rate kd is on record as 1.30 ± 0.21 × 10^−2 s^−1 and the dissociation constant Kd was found to be 12.4 µM.

Consider “Sema3A (26-760) (from UniProt Q14563) (ligand)”, for which, in data set [4], the Kd stood at 0.231 µM; the off-rate (koff) (in general, a measure of how fast the partners let go of each other) was determined as 0.00161 s⁻¹; the kon (in general, a measure of how fast the partners come together) came to 6960 M⁻¹ s⁻¹. Further, in data set [5], the Kd came out at 0.0279 µM, the koff was found to be 0.000808 s⁻¹ and the kon came out at 28900 M⁻¹ s⁻¹.

With “Sema3F (19-779) (from UniProt Q13275) (ligand)”, in data set [4], the Kd was 0.345 µM, the koff is 0.0015 s⁻¹ and the kon stood at 4340 M⁻¹ s⁻¹. In data set [5], this substance showed a Kd of 0.245 µM, a koff of 0.000973 s⁻¹ and a kon of 3980 M⁻¹ s⁻¹.

As for “VEGF165A (from UniProt P15692-4) (ligand)”, in data set [4], the Kd was 0.032 µM, the koff worked out at 0.00373 s⁻¹ and the kon amounted to 117000 M⁻¹ s⁻¹. In data set [5], the Kd was found to be 0.00351 µM, the off-rate (koff) worked out at 0.00342 s⁻¹ and the on-rate constant (kon) stood at 975000 M⁻¹ s⁻¹.
